Experimental data reported in article PMC5566995, “Development and Characterization of a Camelid Single Domain Antibody–Urease Conjugate That Targets Vascular Endothelial Growth Factor Receptor 2” (Frontiers in Immunology, 2017).

B1: biotin-V21H4 (VHH)
VHH: QVQLVESGGGLVQAGGSLRLSCAASGRAFSSYAMGWFRQAPGKERELVAAISWSDDSTYYANSVKGRFTISRDNAKSAVYLQMNSLKPEDTAVYYCAAHKSLQRPDEYTYWGQGTQVTVSS
notes: residues 1-127: V21 core (122 residues, ending at S122) and the first of the added C-terminal residues G123-C136; C136 is the added terminal cysteine; 136 residues in all; also called V21H4 antibody; biotinylated V21H4
B2: VEGFR1/Fc (Fc fusion, UniProt P17948 27-758, looked up)
chain: SKLKDPELSLKGTQHIMQAGQTLHLQCRGEAAHKWSLPEMVSKESERLSITKSACGRNGKQFCSTLTLNTAQANHTGFYSCKYLAVPTSKKKETESAIYIFISDTGRPFVEMYSEIPEIIHMTEGRELVIPCRVTSPNITVTLKKFPLDTLIPDGKRIIWDSRKGFIISNATYKEIGLLTCEATVNGHLYKTNYLTHRQTNTIIDVQISTPRPVKLLRGHTLVLNCTATTPLNTRVQMTWSYPDEKNKRASVRRRIDQSNSHANIFYSVLTIDKMQNKDKGLYTCRVRSGPSFKSVNTSVHIYDKAFITVKHRKQQVLETVAGKRSYRLSMKVKAFPSPEVVWLKDGLPATEKSARYLTRGYSLIIKDVTEEDAGNYTILLSIKQSNVFKNLTATLIVNVKPQIYEKAVSSFPDPALYPLGSRQILTCTAYGIPQPTIKWFWHPCNHNHSEARCDFCSNNEESFILDADSNMGNRIESITQRMAIIEGKNKMASTLVVADSRISGIYICIASNKVGTVGRNISFYITDVPNGFHVNLEKMPTEGEDLKLSCTVNKFLYRDVTWILLRTVNNRTMHYSISKQKMAITKEHSITLNLTIMNVSLQDSGTYACRARNVYTGEEILQKKEITIRDQEAPYLLRNLSDHTVAISSSTTLDCHANGVPEPQITWFKNNHKIQQEPGIILGPGSSTLFIERVTEEDEGVYHCKATNQKGSVESSAYLTVQGTSDKSNLE
notes: vascular endothelial growth factor receptor 1 (VEGFR1), recombinant Fc fusion protein; also called recombinant Fc fusion protein of VEGFR1; source: bought: R&D Systems

Key:
recombinant VEGFR2/Fc = molecular target: T1, recombinant VEGFR2/Fc (Homo sapiens (assumed), UniProt P35968); assay: ELISA; VEGFR/Fc (0.25 ug/mL) captured on plates coated with goat anti-human IgG-Fc; dilutions of antibody-urease conjugate or biotinylated antibody in 0.1% BSA/T-TBS, room temperature, 2 h; conjugates detected with rabbit anti-urease and goat anti-rabbit-AP, biotinylated antibody with streptavidin-alkaline phosphatase; A405; settings: both partners purified
T1 construct: vascular endothelial growth factor receptor 2 (VEGFR2), recombinant Fc fusion protein; Fc fusions of this supplier usually hold the extracellular domain (surmise); also called vascular endothelial growth factor receptor 2 Fc fusion; source: bought: R&D Systems
T1 sequence (P35968 20-764): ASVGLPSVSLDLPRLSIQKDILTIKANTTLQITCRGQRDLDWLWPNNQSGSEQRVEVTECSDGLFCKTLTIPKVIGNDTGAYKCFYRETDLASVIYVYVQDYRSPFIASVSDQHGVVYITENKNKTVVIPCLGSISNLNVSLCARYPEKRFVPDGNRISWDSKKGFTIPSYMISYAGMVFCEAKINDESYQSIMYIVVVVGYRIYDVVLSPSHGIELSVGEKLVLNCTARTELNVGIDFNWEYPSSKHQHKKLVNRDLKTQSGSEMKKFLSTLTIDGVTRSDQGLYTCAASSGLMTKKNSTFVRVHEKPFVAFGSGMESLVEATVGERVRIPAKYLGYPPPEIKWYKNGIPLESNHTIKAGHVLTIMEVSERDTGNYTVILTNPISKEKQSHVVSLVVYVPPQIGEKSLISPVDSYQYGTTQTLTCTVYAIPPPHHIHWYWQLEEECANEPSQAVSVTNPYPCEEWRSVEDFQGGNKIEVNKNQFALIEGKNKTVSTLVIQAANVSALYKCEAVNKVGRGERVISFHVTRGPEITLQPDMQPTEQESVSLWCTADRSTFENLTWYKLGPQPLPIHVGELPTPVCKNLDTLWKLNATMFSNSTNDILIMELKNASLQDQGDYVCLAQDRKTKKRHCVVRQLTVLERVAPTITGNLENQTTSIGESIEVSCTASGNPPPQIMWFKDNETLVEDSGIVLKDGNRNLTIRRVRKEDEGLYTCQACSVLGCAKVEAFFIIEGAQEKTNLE

[1] = molecular target: T2, VEGFR2 expressed by 293/KDR cells (Homo sapiens (assumed; KDR), UniProt P35968); assay: flow cytometry on cells; 293/KDR cells incubated with conjugate or biotinylated antibody in staining buffer (PBS with Ca2+ and Mg2+, 0.02% NaN3, 2% FBS) at 2-8 C for 1 h; conjugates detected with mouse anti-urease and AF488-anti-mouse IgG, biotinylated antibody with PE-SA; signal as ratio to 293 cells or to a biotin-isotype control; settings: one partner purified
T2 construct: vascular endothelial growth factor receptor 2 (VEGFR2, KDR) expressed on 293/KDR cells; source: 293/KDR cells, on the cell surface
T2 sequence (P35968 20-1356): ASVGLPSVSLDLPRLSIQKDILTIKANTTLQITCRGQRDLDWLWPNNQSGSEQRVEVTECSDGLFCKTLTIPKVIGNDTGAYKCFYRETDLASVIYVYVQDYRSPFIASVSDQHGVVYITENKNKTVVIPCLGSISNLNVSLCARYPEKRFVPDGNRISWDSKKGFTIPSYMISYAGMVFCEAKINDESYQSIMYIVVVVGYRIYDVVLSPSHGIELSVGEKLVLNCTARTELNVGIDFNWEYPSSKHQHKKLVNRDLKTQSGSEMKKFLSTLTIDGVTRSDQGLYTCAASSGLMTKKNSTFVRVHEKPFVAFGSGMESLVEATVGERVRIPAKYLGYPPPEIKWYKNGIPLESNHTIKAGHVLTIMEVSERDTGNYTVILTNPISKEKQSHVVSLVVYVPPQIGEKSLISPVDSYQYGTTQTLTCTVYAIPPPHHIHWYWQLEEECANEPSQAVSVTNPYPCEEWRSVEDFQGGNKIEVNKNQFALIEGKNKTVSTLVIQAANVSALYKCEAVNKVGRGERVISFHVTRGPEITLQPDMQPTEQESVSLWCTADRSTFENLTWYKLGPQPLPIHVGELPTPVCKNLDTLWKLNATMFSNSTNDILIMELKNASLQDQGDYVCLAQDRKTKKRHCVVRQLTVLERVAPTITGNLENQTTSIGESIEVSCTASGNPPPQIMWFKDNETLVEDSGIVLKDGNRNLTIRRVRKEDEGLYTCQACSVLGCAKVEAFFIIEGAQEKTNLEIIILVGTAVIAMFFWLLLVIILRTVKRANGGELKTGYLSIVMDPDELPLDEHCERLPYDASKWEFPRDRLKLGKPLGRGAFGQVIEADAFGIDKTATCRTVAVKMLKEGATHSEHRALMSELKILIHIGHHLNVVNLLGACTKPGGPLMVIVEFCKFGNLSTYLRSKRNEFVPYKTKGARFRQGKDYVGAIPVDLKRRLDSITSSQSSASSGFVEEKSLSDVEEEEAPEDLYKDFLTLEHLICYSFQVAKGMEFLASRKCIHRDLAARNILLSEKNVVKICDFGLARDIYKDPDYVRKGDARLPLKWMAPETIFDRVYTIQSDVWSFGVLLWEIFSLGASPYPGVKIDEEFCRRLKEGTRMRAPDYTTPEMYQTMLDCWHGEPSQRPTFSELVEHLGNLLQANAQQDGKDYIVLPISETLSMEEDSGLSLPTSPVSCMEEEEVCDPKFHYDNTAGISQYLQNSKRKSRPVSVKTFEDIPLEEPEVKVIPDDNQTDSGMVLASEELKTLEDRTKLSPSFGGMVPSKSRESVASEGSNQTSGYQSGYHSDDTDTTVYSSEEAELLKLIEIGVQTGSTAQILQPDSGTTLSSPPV

V21H4-DOS47 = molecular target: T3, V21H4-DOS47 (llama | jack bean (Canavalia ensiformis)); assay: ELISA; VEGFR/Fc (0.25 ug/mL) captured on plates coated with goat anti-human IgG-Fc; dilutions of antibody-urease conjugate or biotinylated antibody in 0.1% BSA/T-TBS, room temperature, 2 h; conjugates detected with rabbit anti-urease and goat anti-rabbit-AP, biotinylated antibody with streptavidin-alkaline phosphatase; A405; settings: both partners purified
T3 construct: as the chain of m1; residues 1-127 of V21H4; urease, jack bean (Canavalia ensiformis), homohexamer, purified from crude urease; Antibody-urease conjugate; the standard method gives 8.7-9.2; also called V21-DOS47; V21H4-DOS47 (8.8 antibodies/urease); source: conjugate purified by diafiltration; copies: 8.8 + 6

Row | Binder | EC50 (recombinant VEGFR2/Fc) [nM] | EC50 [1] [nM] | binding result (V21H4-DOS47)
1 | B1 | 1.8 | 1.6 | 
2 | B2 |  |  | no binding
